Eight proteins from paper PMC1868598 can be followed below.

The nature of data set [1]: Triton X-100 lysis, sucrose gradient flotation, COS-1. The following applies: glycan lost; control: wild type.
Data set [2] can be described thus: confocal colocalisation with GFP-Rab4, transfected HeLa/COS-1. The following applies: glycan lost; control: wild type.

B1: human ClC-6 (hClC-6a): AAA-hClC-6 (protein)
parent chain: MAGCRGSLCCCCRWCCCCGERETRTPEELTILGETQEEEDEILPRKDYESLDYDRCINDPYLEVLETMDNKKGRRYEAVKWMVVFAIGVCTGLVGLFVDFFVRLFTQLKFGVVQTSVEECSQKGCLALSLLELLGFNLTFVFLASLLVLIEPVAAGSGIPEVKCYLNGVKVPGIVRLRTLLCKVLGVLFSVAGGLFVEKEGPMIHSGSVVGAGLPQFQSISLRKIQFNFPYFRSDRDKRDFVSAGAAAGVAAAFGAPIGGTLFSLEEGSSFWNQGLTWKVLFCSMSATFTLNFFRSGIQFGSWGSFQLPGLLNFGEFKCSDSDKKCHLWTAMDLGFFVVMGVIGGLLGATFNCLNKRLAKYRMRNVHPKPKLVRVLESLLVSLVTTVVVFVASMVLGECRQMSSSSQIGNDSFQLQVTEDVNSSIKTFFCPNDTYNDMATLFFNPQESAILQLFHQDGTFSPVTLALFFVLYFLLACWTYGISVPSGLFVPSLLCGAAFGRLVANVLKSYIGLGHIYSGTFALIGAAAFLGGVVRMTISLTVILIESTNEITYGLPIMVTLMVAKWTGDFFNKGIYDIHVGLRGVPLLEWETEVEMDKLRASDIMEPNLTYVYPHTRIQSLVSILRTTVHHAFPVVTENRGNEKEFMKGNQLISNNIKFKKSSILTRAGEQRKRSQSMKSYPSSELRNMCDEHIASEEPAEKEDLLQQMLERRYTPYPNLYPDQSPSEDWTMEERFRPLTFHGLILRSQLVTLLVRGVCYSESQSSASQPRLSYAEMAEDYPRYPDIHDLDLTLLNPRMIVDVTPYMNPSPFTVSPNTHVSQVFNLFRTMGLRHLPVVNAVGEIVGIITRHNLTYEFLQARLRQHYQTI
For B1, the “other: detergent-resistant membrane association” value in data set [1] is given as “no change”. Further, the localisation_or_trafficking result in data set [2] is “no change”.

B2: human ClC-6 (hClC-6a): ANA-hClC-6: N410A/N432A (protein)
parent chain: B1 parent chain
In the case of B2, the localisation_or_trafficking result in data set [2] was “no change”.

B3: human ClC-6 (hClC-6a): NNA-hClC-6: N432A (protein)
parent chain: B1 parent chain
B3: the localisation_or_trafficking entry in data set [2] is recorded as “no change”.

B4: human ClC-6 (hClC-6a): AAN-hClC-6: N410A/N422A (protein)
parent chain: B1 parent chain
With B4, the localisation_or_trafficking entry in data set [2] was “no change”.

B5: human ClC-6 (hClC-6a): NAA-hClC-6: N422A/N432A (protein)
parent chain: B1 parent chain
For B5, the localisation_or_trafficking result in data set [2] was “no change”.

B6: human ClC-6 (hClC-6a): NAN-hClC-6: N422A (protein)
parent chain: B1 parent chain
Regarding B6, the localisation_or_trafficking result in data set [2] was “no change”.

B7: human ClC-6 (hClC-6a): ANN-hClC-6: N410A (protein)
parent chain: B1 parent chain
Consider B7, for which the localisation_or_trafficking entry in data set [2] is given as “no change”.

B8: human ClC-6 (hClC-6a): AAAA-hClC-6 (protein)
parent chain: B1 parent chain
Consider B8, for which the localisation_or_trafficking result in data set [2] was “no change”.
